One block for each binder: values may come before it.
Assays:
[1] = molecular target: T1, human TNFR2 on the surface of CHO-TNFR2 cells (human, UniProt P20333 23-461); assay: flow cytometry competition: antibody titrated on CHO-TNFR2 cells, then human TNFα-biotin, detection with PE-streptavidin [panel B]
T1 construct: whole, on cells
T1 sequence (looked up): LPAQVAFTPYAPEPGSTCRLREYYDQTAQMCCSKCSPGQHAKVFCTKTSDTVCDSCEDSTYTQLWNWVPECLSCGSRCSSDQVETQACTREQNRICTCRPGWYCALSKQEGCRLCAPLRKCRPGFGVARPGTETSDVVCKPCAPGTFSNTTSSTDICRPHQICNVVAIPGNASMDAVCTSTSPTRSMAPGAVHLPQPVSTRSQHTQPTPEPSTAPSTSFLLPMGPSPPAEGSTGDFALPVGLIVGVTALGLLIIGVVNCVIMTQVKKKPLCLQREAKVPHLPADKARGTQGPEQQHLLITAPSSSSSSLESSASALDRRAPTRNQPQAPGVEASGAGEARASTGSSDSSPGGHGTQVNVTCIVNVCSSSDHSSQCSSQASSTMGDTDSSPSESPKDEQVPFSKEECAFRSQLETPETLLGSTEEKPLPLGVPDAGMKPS
Method: (§1) CHO stable cells highly expressing human TNFR2 were used for the experiment (the same as CHO-TNFR2 in Example 4). The CHO-TNFR2 cells were digested, washed twice with DPBS, then stained with Live/Dead (L/D) (20 minutes at room temperature), and plated at a density of 1×10⁵ cells/50 μl/well. A test anti-TNFR2 antibody was diluted to 6 μg/ml with a staining buffer as the starting concentration: the antibody was subjected to 3.33-fold gradient dilution, with a total of 7 concentration points. The diluted antibody was added to the plated cells at 50 μl/well, and the mixture was mixed well by gentle pipetting, and incubated at 4° C. for 30 minutes. Then the diluted 100 ng/ml of human TNFα-biotin was added at 100 μl/well, and the mixture was mixed well by gentle pipetting, and then incubated at 4° C. for 30 minutes. The mixture was washed twice with a staining buffer, and then 0.12 μg/ml PE-streptavidin (BioLegend, Cat #405204) was added at 100 μl/well; the resulting mixture was incubated at 4° C. for 30 minutes. The mixture was washed twice with a staining buffer, and then 150 μl of staining buffer was added to resuspend the cells; signals were detected by a flow cytometer (Thermo Attune NxT). […]

[2] = molecular target: T2, human TNFR2 (Novoprotein, Cat #C830) (human, UniProt P20333 23-257, limits assumed); assay: competition ELISA: antibody titrated against human TNFα-Biotin on coated human TNFR2 (Novoprotein), detection with Streptavidin-HRP [panel A]
T2 construct: construct not described; also called human TNFR2 protein
T2 sequence (looked up): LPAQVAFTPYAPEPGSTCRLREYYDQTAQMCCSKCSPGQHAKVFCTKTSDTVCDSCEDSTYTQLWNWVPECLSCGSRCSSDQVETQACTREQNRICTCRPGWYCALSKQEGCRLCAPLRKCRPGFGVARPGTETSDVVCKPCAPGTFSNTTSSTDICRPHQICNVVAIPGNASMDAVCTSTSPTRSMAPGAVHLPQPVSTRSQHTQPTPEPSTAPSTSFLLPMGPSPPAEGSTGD
Method: (§2) 1 μg/ml human TNFR2 (Novoprotein, Cat #C830) was pre-coated with 100 μl/well […] in an ELISA plate. All the test TNFR2 antibodies were subjected to 2.5-fold gradient dilution from the highest concentration of 30 μg/ml; the diluted antibodies were mixed with 15 ng/ml human TNFα-Biotin (Acro Biosystem, Cat #TNA-H82E3) in equal volume, respectively; the resulting mixture was added to the ELISA plate at 100 μl/well, and incubated with shaking at room temperature for 2.0 hours. The plate was washed, and then a Streptavidin-HRP working solution (diluted at 1:10000) was added at 100 μl/well, and the mixture was incubated with shaking at room temperature for 40 minutes. The plate was washed again, and then the substrate TMB of HRP was added to develop colour. A stop solution was added to stop the reaction, and then a microplate reader (MD 13) was used to read the absorbance value. The inhibitory curve of an antibody was drawn with antibody concentration as the abscissa and corresponding OD value as the ordinate, and fitted with four parameters (GraphPad Prism9) to calculate the IC50 value. The smaller the IC50 value, the stronger the ability of an antibody to inhibit the binding of human TNFα to human TNFR2. The blocking effect of a humanized antibody was normalized to its corresponding human-murine chimeric antibody WT. […]

[3] = molecular target: T2, human TNFR2 (Novoprotein, Cat #C830); assay: competition ELISA: antibody titrated against human TNFα-Biotin on coated human TNFR2 (Novoprotein), detection with Streptavidin-HRP [panel C]
Method: as §2

[4] = molecular target: T1, human TNFR2 on the surface of CHO-TNFR2 …; assay: flow cytometry competition: antibody titrated on CHO-TNFR2 cells, then human TNFα-biotin, detection with PE-streptavidin [panel C]
Method: as §1

- IC50 (read off the curve) [1]: ~0.05 µg/mL
B1: 219-WT (antibody, V domains shown)
VH: EVQLQESGAELVRPGASVKLSCKASGYSFTNYWMNWVKQRPGQGLEWIGMIHPSDTETRLNQNFKDKATLTVDKSSSTSYMQLSSPTSEDSAVYYCARGEGLGAARSVSMDYWGQGTTVTVSS
VL: DILMTQSPSSLSASLGDRVTISCRASQDISNYLNWYQQKPDGTVKVLIYYTAILHSGVPSRFSGSGSGTDYSLTISNLEQEDIATYFCQQGNTLPWTFGGGTKLEIK
notes: Human-murine chimeric wild-type molecule

- IC50 (read off the curve) [2]: ~0.6 µg/mL
B2: 001-WT (antibody, V domains shown)
VH: EVQLQESGGGLVQPGGSLNLSCAASGFAFSTYDLSWVRQTPEKRLEWVAYINNGGISTYYSDTVKGRFTISRDNAKNTLYLQMSSLKSEDTAMYYCVRGPFYGSANYFDYWGQGTTVTVSS
VL: EIVMTQSPASLSLSVGETVTITCRTSESIYSNLPWYQQKQGKSPQLLVYDATKLAEGVPSRFSGSESGTQYSLKINSLQSEDFGTYYCQHFWVTPWTFGGGTKLEIK
notes: Human-murine chimeric wild-type molecule; also called human-murine chimeric antibody WT of #001

- IC50 (read off the curve) [3]: ~0.5 µg/mL
- IC50 (read off the curve) [4]: ~0.05 µg/mL
B3: 224-WT (antibody, V domains shown)
VH: EVQLQESGPEIVKPGASVKLSCTASGFNNKDIYMHWVKQRPEQGLEWIGRIDPATGNTKHDPKFQDKATLSSDTSSNTAYLQFSSLTSEDTAVYYCAHSPYGDFGAMDYWGQGTTVTVSS
VL: DIQMTQSPAIMSASLGERVTMTCTASSSVSSNYLHWYQQKPGSSPKLWIYSTSNLPSGVPARFSGSGSGTSYSLTISSMEAEDAATYYCHQYHRSPWTFGGGTKLEIK
notes: Human-murine chimeric wild-type molecule; also called human-murine chimeric antibody WT of #224

Reference: patent US20240109974A1 (SHANDONG SIMCERE BIOPHARMACEUTICAL, published 2024)
